Literature values, collected in US9180102B2, “Methods for fabricating nano and microparticles for drug delivery” (BOARD OF REGENTS, THE UNIVERSITY OF TEXAS SYSTEM, priority 2005, dated 2015).

Molecular target: Cathepsin B (Homo sapiens, UniProt P07858)
Conditions: degradation of peptide spacer by lysosomal protease

## Gly-Phe-Leu-Gly (GFLG; printed: Gly-Phe-Leu-Gly)
  sensitivity of peptide spacer sequence to Cathepsin B: especially sensitive
